Numbering of substitutions follows the chain as printed.
Key:
Assay in all cases: fluorescence anisotropy
A3F = target: T1, A3F (UniProt Q8IUX4); settings: apparent Kd; 10 mM Mg2+; RT buffer: 50 mM Tris pH 7.4, 40 mM KCl, 10 mM MgCl2, 1 mM DTT; 10 nM F-labeled DNA; 21 C
T1 sequence: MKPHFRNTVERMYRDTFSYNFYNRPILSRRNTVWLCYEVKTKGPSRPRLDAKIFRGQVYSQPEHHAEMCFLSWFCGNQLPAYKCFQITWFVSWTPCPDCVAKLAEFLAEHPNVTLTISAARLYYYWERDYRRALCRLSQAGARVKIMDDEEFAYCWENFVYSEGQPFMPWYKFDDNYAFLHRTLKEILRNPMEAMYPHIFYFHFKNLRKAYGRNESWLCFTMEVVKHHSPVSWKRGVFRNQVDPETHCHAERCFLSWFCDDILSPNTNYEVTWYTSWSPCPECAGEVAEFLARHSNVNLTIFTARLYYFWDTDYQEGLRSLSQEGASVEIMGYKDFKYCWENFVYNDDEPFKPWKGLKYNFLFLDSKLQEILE

A3F CTD = target: T2, A3F CTD (UniProt Q8IUX4); settings: RT buffer: 50 mM Tris pH 7.4, 40 mM KCl, 10 mM MgCl2, 1 mM DTT; 10 nM F-labeled DNA; 21 C
T2 sequence: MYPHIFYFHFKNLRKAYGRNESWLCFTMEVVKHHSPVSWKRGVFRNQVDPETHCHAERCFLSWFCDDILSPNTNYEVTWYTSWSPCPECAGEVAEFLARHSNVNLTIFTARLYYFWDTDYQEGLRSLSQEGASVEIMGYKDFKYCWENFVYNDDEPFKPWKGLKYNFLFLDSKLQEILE

A3F NGM P191G = target: T3, A3F NGM P191G (UniProt Q8IUX4); settings: RT buffer: 50 mM Tris pH 7.4, 40 mM KCl, 10 mM MgCl2, 1 mM DTT; 10 nM F-labeled DNA; 21 C
T3 sequence: T1 sequence with P191G

GST-A3F = target: T4, GST-A3F (UniProt Q8IUX4); settings: RT buffer: 50 mM Tris pH 7.4, 40 mM KCl, 10 mM MgCl2, 1 mM DTT; 10 nM F-labeled DNA; 21 C
T4 sequence: T1 sequence

How did the Kd (A3F) turn out when “GAATATAGTTTTTAGTTCAAAGTAAGTGAAGATAATTTAGAGAGTTGTAATGTGATATATGTGTATGAAAGATATAAGATTCAAAGAGTAAAGTTGTTAATGTGTGTAGATATGTTAA [A3F - 63 (TTC) (118 nt)]” was run?
The Kd was 20 nM.

What about the Kd (A3F CTD) of the same sequence?
The Kd was 288 nM.

What about the Kd (A3F NGM P191G) of the same sequence?
The Kd was 119 nM.

What about the Kd (GST-A3F) of the same sequence?
The Kd was 46 nM.
